Assays:
[1] = cited from earlier work
C57Ks/J db/db male mice = assay: Fatty liver of db/db mice, Oil-Red O staining for neutral lipid; format: in vivo; conditions: 10-week-old db/db male mice; Avandia 3 or 10 mg/kg/day oral gavage for 13 days, ± Axokine 0.1 or 0.3 mg/kg/day in the last 8 days
Description: The effects of Avandia™ administration ±Axokine™ (SEQ ID NO:1) on fatty liver of db/db mice was examined. 10-week-old C57Ks/J db/db male mice were treated for 13 days with either vehicle or Avandia™ alone (3 or 10 mg/kg/day) by oral gavage or ±Axokine™ (0.1 or 0.3 mg/kg/day) in the last 8 days. 24 hours after the last administration (day 14) all animals were anesthetized , the liver removed and rapidly frozen until it could be processed. The tissues were sectioned, mounted on glass, and stained with Oil-Red O for the detection of neutral lipid.

C57BL/KsJ db/db mice = assay: Body weight and food intake of db/db mice under daily treatment; format: in vivo
Description: FIG. 1 is a graph of the effect of co-administration of Axokine™ (SEQ ID NO:1) (0.1 or 0.3 mg/kg s.c.), Avandia™ (3 or 10 mg/kg/day oral gavage) , or vehicle for 12 days on body weight in C57BL/KsJ db/db mice (% change from the first day of treatment). At day 5 (arrow), two combined treatment groups were initiated receiving Avandia™ (3 mg/kg/day, oral gavage)+Axokine™ (0.1 or 0.3 mg/kg s.c.). All data represents the mean (n≧6)±SEM.
C57BL/KsJ db/db mice were treated by daily administration of Axokine™ (SEQ ID NO:1) (0.1 or 0.3 mg/kg s.c.), Avandia™ (3 or 10 mg/kg/day oral gavage), and vehicle (vehicle) for […], and the effect on body weight determined (FIG. 1, shown as the % change from the first day of treatment). […] A combined treatment group consisted of Avandia™ (3 mg/kg/day, oral gavage) +Axokine™ (0.1 or 0.3 mg/kg s.c.) administered for the […] (arrow, FIG. 1). All data represents the mean (n>6)±SEM.

[2] = previously found by the applicant; cited from earlier work
[3] = daily injection 0.1 or 0.3 mg/kg s.c.

For `Cc1c(C)c2c(c(C)c1O)CCC(C)(COc1ccc(CC3SC(=O)NC3=O)cc1)O2` (stereo not shown) [troglitazone], which hepatic reaction ([1]; patients, Lebovitz et al. (2002)) is on record?
The hepatic reaction was “idiosyncratic hepatic reaction leading to hepatic failure and death in some patients”.

With `CN(CCOc1ccc(CC2SC(=O)NC2=O)cc1)c1ccccn1` (stereo not shown) [Avandia™, rosiglitazone] as the molecule, how does the body weight ([1]; Chaput et al. (2000)) read?
The body weight was “increased body weight”.

B1: Axokine™: modified CNTF molecule (SEQ ID NO:1) with improved physical and chemical properties, which activates the CNTF receptor (protein)
chain: MAFTEHSPLTPHRRDLASRSIWLARKIRSDLTALTESYVKHQGLNKNINLDSADGMPVASTDRWSELTEAERLQENLQAYRTFHVLLARLLEDQQVHFTPTEGDFHQAIHTLLLQVAAFAYQIEELMILLEYKIPRNEADGMPINVGDGGLFEKKLWGLKVLQELSQWTVRSIHDLRFISSHQTG
With B1 as the molecule, how does the “deposition of neutral lipid in liver (Oil-Red O staining)” value (C57Ks/J db/db male mice) read?
The value was “reduced staining with Oil Red O”.

And the body weight (C57BL/KsJ db/db mice; [3])?
Its body weight is “caused weight loss”.

What about the food intake (C57BL/KsJ db/db mice; [3]) of the same molecule?
Its food intake is “decreased food intake”.

What about the “body weight with increasing doses, versus vehicle control groups” value (C57BL/KsJ db/db mice; increasing doses, ANOVA, P<0.0001 in all cases) of the same molecule?
The value was “further reduction in body weight”.

And the “effect on food intake and body weight, blood glucose and tolerance, and serum insulin levels” value [2]?
Its value is “profound effect”.
